Measured values: the nanobody polyreactivity screen of Harvey et al. (2022)

Assay: yeast display, Sf9 membrane polyspecificity reagent, FACS + sequencing; frameworks hold sequencing errors
How it was run: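 Polyreactivity labels are assigned by the sorting gate from which each nanobody was recovered. The gates were low and high (top ~1%), set on anti-HA fluorescence for expression and streptavidin fluorescence for reagent binding. Before sorting, galactose-induced (36–48 hours) yeast display cells were stained for 1 hour at 4 °C with 10% biotinylated, detergent-solubilized Sf9 membrane reagent.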

| Sequence | polyreactivity (PSR sort gate) |
| --- | --- |
| QVQLVESGGGVVQAGGSIRLSCAASGRIFTSNAMGWNRQAPGKETELDAAISGSGGRTYYADSVKGRFTISRDNAKNTVYLQMNSLKPEDTAVYDCNARYYTSGIAYSYYYWGQGTQGTVSS | high polyreactivity |
| PVQLVESGGGLVQAGGSLRLSCAASGFTFSYYAMGWYRQAPGQEWELVAGIDDSCGSTYYADSVKGRFTISRDNAKNTVELQMNSLKPEDTAFYYCNAVYARKYYYSHGYDYWGQGTQVTVSS | high polyreactivity |
| QVQLVESGGGLVQAGGSLRLSCAASGRIFRVYAMGWYRQAPGKERELVAVISARGGNTYYADSVKGRFTISRDNAKNTVYLQMNSMKPEDTAVYYCAARGRMDYWGQGTQVTVSS | high polyreactivity |
| QVQLVESVGGLVQAGGSLRLSCAASGFTFGPYAMGWYRQSPGKERELVAPIDDSGGNTYYADSVKGRFTISRDNAKNTVYLQMNSLKQEDTAVYYCNAFGADYYHVYPAEDYWGQGNQVTVSS | low polyreactivity |
| QVQLVESGGGLVQAGGSLRLSCAASGSIFAYYAMGWYRQAPGKERELVAYISRSGGITYYADSVKGRFTLSRDNAKNTVYLQMNSLKPVDTAVDYCAARYSVRPISIYPFDFGYWGQGTQVTVSS | low polyreactivity |
| QVQLVESGVGLVQAGGSLSLSCAASGITFPYVMGWYRQAPGKERELVAAISRTGTSTYYADSVKGRFTSSRDNAKNNVYLEMNTLKPEDTAVYYCAARTQTQVYPAYGYWGQGTQVTVSS | high polyreactivity |
| QVQLVESGGGLVQAGGSLRLSCAASGRTFIRYAMGGYRQATGKERELVAAISWSGGSTYYADSVKGRFTISRDNAKNTVYLQMNSLKPEDTAVYYCARRVGYKFSYDYWGQGTQVTVSS | high polyreactivity |
| QVQLVESGGGLVQEGGSLRLSCAASGFTIRTYAMGWYRQAPGKERELVAAINTGGGTNYADSVKGRFTISRDNAKNTVYLQMNSLKPEDTAVYYCNSVHYYYYYWYSLYDSWGKGTQVTVSS | high polyreactivity |
| QVQLVESGGGLVQAGGSLRLSCAASGFIFYYNTMVWYRQAPGKERELVASITWSGDTTYYADSVKGRFTISRDNAKNTVYLQMNSLKPEDTAVYYCAAVHYYPYRRYDYWGQGTQVTVSS | low polyreactivity |
| QVQLVESGGGLVQAGGSLRLSCAASGSIFVYNVMGWYRQAPGKERELVAAISKTAGRTYYEDSVKGRFTISRDNAKNTVYLQMNSLKPEDTAVYYFAVGNKRDAYYQYSSYGYWGQGTQVTVSS | low polyreactivity |
| QVQLVESGGGLVQAGGSLRLSCAASGSIFISYAMGWYRQAPGKARELVAAISRSGGSTYYADSVKGRFTISRDNAKNTVYLQMNSLKPEDTAVYYCAARSYPGKAGMGYWGQGTQVTVSS | high polyreactivity |
| QVQLVESGGGLVQAGGSLRLSCAASGIIFWWYAMGWSRQAPGKERELVAAISGTGGSTYYADSVKGRFTISRDNAKNTVYLQMNSLKPEDTAVYYCAKRASPFWRGYDSWGQGTQVTVSS | low polyreactivity |
| QVQLVESGGGLVQAGGSLRLSCAASGRTIRSYAMGWYSPAPGKERELVAAITGSGGRTYYADSVKGRFTISRDNATNTVYLQMNSLKPEDTAVYYCAARLRGSYDYWGQGTQVTVSS | high polyreactivity |
| QVQLVESGGGLVQAGGSLRLSSPASGRTIRSYAMGSYRQAPGKERELVAAINSSGGSTYYADSVKARFTISRDNAKNTVYLQMNSLKPEDTAVYYCNTDYSSTSPWRAANYWGQGTQVTVSS | high polyreactivity |
| QVQLVESGGGLVQAGGSLRLSCAASGRIFVINAMGWYRQAPGKERELVADITWSGGSTYADSVKGRFTISRDNAKNTVYLLMNSLNPADTAVSYCAAVYLRVDRYLQVYRYDYWGQGTQVTVSS | high polyreactivity |
| QVQLVESGGGLVQAGGSLRLSCAASGFTFKRYAMGWYRQAPGKEREFVAAITRGGGSTYYTDSVKGRFTISRDNAKNTVYLQMNSLKPEYTAVYYCAAVLYYYWRGYGPRSNRYDYWGQGTQVTVSS | high polyreactivity |

| Sequence | polyreactivity (PSR sort gate) |
| --- | --- |
| QVQIVESGGGLVQAGGSLRLSCAASGFIFQAYAMGWYRQAPGKERELVAAISSTSGRTYYADSVKGRFTISRDNAKNTVYLQMNSLKPEDTAVYYCARAVSSRNSGEYHYWGQGTQVTVSS | high polyreactivity |
| QVQLVESVGGLVQAGGSLRLICAASGSTFTWYAIGWNRQAPGKERELVADITWRDGSTYYADSVKGRFTISRDNAKNTVYLQMNSLKPEDTAVYYCAADYTYWGIFFGYWGQGTQVTVSS | high polyreactivity |
| QVQLVESGGGLVQAGGSLRLSCAASGITFGLYAMGWYRQAPGKERELVAAITWRGGSTYYADSVKGRFTISRDNAKNTVYLQMNSLKPEDTAVYYCAADFSGYSDDYWGQGTQVTVSS | high polyreactivity |
| QVQLVESGGGLVQAGGSLRLSCAASGRIFSRYALGWYSPEPGKERELVAAIRSNGGRTYYADSVKGRFTISRDNAKNTVYLQMNSLKPEDTAVYYCAAAGGGKVSYRDYDYWGQGTQVTVSS | high polyreactivity |
| QVQLEESRGGLVQAGGSLRLSCAASGITFYTYAMGWYRQAPGKETELVAAITSRTGSTYYADSVKGRFTISRDNAKNTVYLQMNSLKPEDTAVYDCAADRTRGRDGSDYWGQGTQVTVSS | low polyreactivity |
| QLQLVESGRGLVQAGVSLRLSCAASGFIFEDYAMGCYRTAPGNDRELVAAISRRGGSTYYADSVKGRFTISRYNAKKTVYLQMNSLKPEDTAVYYCAAYYPYSGKGGYDYWGQGTQVTVSS | high polyreactivity |
| QVQLVESGGGLFQAGGSHRLSCAATGINFSEYAMGWYRQAPGKERELVAAISKSSGSTRYADSVKGRFTISRDNAKNTVFLQMNSLNPEDTAVYYCAARQYGPRYTYYYWGQGTQVTVSS | high polyreactivity |
| QVQLVESRGGLVQAGGSLRLSCAPSGLIFWAYARGWYRQAPGNERELVAAINWRGGSTYYADSVKGRFTISRDNAKNTVYLQMNSLKPEDTAVYYCAADSYYDEYDYWGQGTQVTVSS | low polyreactivity |
| QVQLVESGGGLVQAGGSLRLSCAASGSIFTGYAMGWYRQAPGKERELVAAISNSGTATYYADSVKGRFTISRDNAKNTVYLQMNSLKPEDSAVYYCNTVGHRWLSDDDYWGQGTQVTVSS | low polyreactivity |
| QVQLVESGGGLVQAGGSLRLSCAASGGIFFINAMGWYRQAPGKERELVAAISISDGSTYYADSVKGRFTISRDNAKNTVYLQMNSLKPEDTAVYYCAAEGFDWDSPEMEYWGQGTQVTVSS | low polyreactivity |
| QVQLVESGGGLVQAGGSLRLSCAASGRTFVVNDMGWYRQAPGNDRELVAAINYNAGSTFYADSVKGRFTISRDNAKKTVYLQMNSLKPEATAVYYCATDVYGYVEYDYWGQGTQVTVSS | low polyreactivity |
| QVQLVESGGGLVQAGGSLRLSCAASGRTFARYAMGWYRQAPGKERELVAAISWSGGRTYYADSVKGRFTISRDNAKNTVYLQMNSLKPEDTAVYYCAASLYRRQMDHWGQGTQVTVSS | high polyreactivity |
| QVQLVESGGGIVQAGGSLRLSCAASGGTFSRNAMGWYRQAPGKERELVAAINSSGVSTSYADSVKGRFTISRDNEKNTVYLQMNSLKPEDTAVYYCAAETSSAEVDYWGQGTQVTVSS | low polyreactivity |
| QVQLVESGGGLVQAGGSLRLSCAASGRIFPGYAMGWYRQAPGKERELVAAISKGGGSKYYADSVKGRFTISRDNAKNTVYLQMNSLKTEDTAVYYCAAQSYPRSYGLDYWGQGTQVTVSS | high polyreactivity |
| QVQLVESGGGIVQAGGSLRLSCAASGFNFSLYAMGWYRQAPGKERELVAVIDRRGGNTYYADSVKGRFTISRDNAKNTVYLQMNSLKPEDTAVYSCAADRRFHYDYWGQGTQVTVSS | high polyreactivity |
| QVQLVESGGGLVQAGGSLRLSCAAYGYTFGYYTMGWYRQAPWKERQLVASIDSGGGTNYADSVKGRFTISRDNAKNTVYLQMNSLKPEDTAVYYCAAESPLYWVDDFESGWRYYYWGQGTQVTVSS | low polyreactivity |
